For one test, the target named is T1, hCCR3 (Homo sapiens, UniProt P51677).
T1 construct: expressed in transfected cells
T1 sequence (P51677 1-355): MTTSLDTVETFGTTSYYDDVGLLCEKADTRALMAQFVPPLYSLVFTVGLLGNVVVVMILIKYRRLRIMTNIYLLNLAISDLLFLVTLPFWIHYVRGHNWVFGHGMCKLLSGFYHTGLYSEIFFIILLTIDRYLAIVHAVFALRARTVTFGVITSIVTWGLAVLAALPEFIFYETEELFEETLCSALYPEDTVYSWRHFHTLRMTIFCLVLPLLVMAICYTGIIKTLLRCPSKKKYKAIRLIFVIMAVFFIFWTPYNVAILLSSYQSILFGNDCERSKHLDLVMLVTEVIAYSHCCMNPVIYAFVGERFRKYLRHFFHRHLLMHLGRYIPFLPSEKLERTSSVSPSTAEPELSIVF
In words: Specificity for CXCR4, flow cytometry on GPCR over-expressing cells (Example 6). The test is classed as binding. The following applies: cell line hCCR3; test IgG at 100 nM. As for the experimental part: (§1) Cells over-expressing different GPCRs other than CXCR4 and several lines transfected to over-express CXCR4 (R1610-hCXCR4, Cf2Th-hCXCR4 and CHO-hCXCR4) were compared. Cultures were incubated with a test IgG at 100 nM in FACS buffer for 40 min at 4° C. Thereafter, cells were washed twice, stained with anti-human-Fc antibody-PE conjugate (Jackson Immunoresearch Laboratories Inc., West Grove, Pa.), washed twice in FACS buffer and then transferred to FIX buffer. Fluorescence intensities were measured by GUAVA PCA-96 at 425V (in triplicate).
(§2) The expression of GPCRs other than CXCR4 was confirmed using commercially available antibodies (positive controls). For example, a commercial anti-CXCR1 antibody was used as a positive control for confirming the expression of CXCR1 on the CXCR1-transfected CHO cells.
On the technique in general: Flow cytometry measures light scatter and fluorescence of single cells or particles in a stream.

For the next test, the system named is RA1 cells. In words: Antibody-dependent cell-mediated cytotoxicity (ADCC), LDH release (Example 10). The class given is cell-based, human. The following applies: E:T ratio 20:1. As for the experimental part: ADCC was measured with RA1 cells as the target cells (T) and using the CytoTox 96® Non-Radioactive Cytotoxicity Assay (Promega Corp., Fitchburg, Wis.)), which assay measures lactate dehydrogenase (LDH) release. A round-bottom 96-well culture plate was set up with the following control and experimental wells (100 microliter final volumes):
a. RA1 cells (for target cell spontaneous LDH release control) b. RA1 cells (for target cell maximum LDH release control) c. Culture medium (RPMI 1640 Medium (1X) without phenol red) used for volume correction control d. Culture medium (for culture medium background control) e. RA1 plus effector cells (E) (for target plus effector cell spontaneous LDH release control) f. Experimental wells with effector and target cells (10^5) with serial dilutions of each test IgG or without test IgG.
The plates were centrifuged at 1600 rpm for 2 minutes and incubated at 37° C. for 4 hours. One hour prior to supernatant harvest, 20 microliters of Lysis Solution (10×) were added to the conditions b) and c). The plates were centrifuged at 1600 rpm for 2 minutes, and 50 microliters of the supernatant from each well of the assay plates were transferred to corresponding wells of a flat-bottom 96-well enzymatic assay plate. Substrate Mix (50 microliters) was added to each well of the latter plate, and the plate (protected from light) was incubated for 30 minutes at room temperature. Finally, 50 microliters of Stop Solution were added to each well, and absorbance (OD values) was measured at 490 nm. Each condition was tested in triplicates.
Preliminary experiments had been conducted in order to determine the optimal E:T ratio. The data shown below were obtained at a 20:1 E:T ratio with 10^5 RA1 target cells. The effector cells used in this study were prepared as follows: human peripheral blood mononuclear cells (PBMCs) obtained from a healthy donor were isolated by means of density gradient centrifugation using Lymphocyte Separation Medium (ref. J15-004, Invitrogen Corp., Carlsbad, Calif.). PBMCs at 2×10^6 per mL were cultured for two days in RPMI 1640 with 10% FCS, penicillin/streptomycin and 100 units per mL of human recombinant IL-2 (obtained from Roussel-Uclaf) in a 37° C. humidified incubator (5% CO2).
ADCC percentages obtained at different concentrations of test IgGs were calculated with the formula % ADCC=(f−e)/(b−a)×100, i.e., % ADCC=(OD of Target+Effector cells +/−Test Mab −OD of Spontaneous Release of Target+Effector cells)/(OD Maximal Release Target cells −OD Spontaneous Release of Target cells)×100.
Background: LDH leaks from cells whose membrane has failed.

A further test deals with T2, hCCR7 (Homo sapiens, UniProt P32248).
T2 construct: expressed in transfected cells
T2 sequence (P32248 25-378): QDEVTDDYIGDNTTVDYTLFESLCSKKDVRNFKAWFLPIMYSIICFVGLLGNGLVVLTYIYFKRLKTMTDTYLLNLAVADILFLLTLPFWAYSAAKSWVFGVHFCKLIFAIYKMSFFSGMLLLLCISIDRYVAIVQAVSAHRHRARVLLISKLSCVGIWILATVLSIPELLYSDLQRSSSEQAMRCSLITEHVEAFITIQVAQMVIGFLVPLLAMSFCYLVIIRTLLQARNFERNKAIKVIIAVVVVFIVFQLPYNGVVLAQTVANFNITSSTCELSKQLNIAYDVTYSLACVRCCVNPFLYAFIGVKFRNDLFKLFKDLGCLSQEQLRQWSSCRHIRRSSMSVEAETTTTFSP
In words: Specificity for CXCR4, flow cytometry on GPCR over-expressing cells (Example 6). The class given is binding. The following applies: cell line hCCR7; test IgG at 100 nM. As for the experimental part: as §1, §2

B1: V62.1-R108H-m47-m38: matured anti-CXCR4 antibody; LCVR SEQ ID NO 14, HCVR SEQ ID NO 18 (antibody, V domains shown)
VH: EVQLLESGGGLVQPGGSLRLSCAASGFTFSSYAMSWVRQAPGKGLEWVSAISGSGGTRYADSVKGRFTISRDNSKNTLYLQMNSLRAEDTAVYYCARQGKTRVYGYHWHGYGSTHALDYWGQGTLVTVSS
VL: EIVLTQSPGTLSLSPGERATLSCRASQSVSSSYLAWYQQKPGQAPRLLIYGASSRATGIPDRFSGSGSGTDFTLTISRLEPEDFAVYYCQQWSSDSVTFGQGTKVEIKRT
modifications: heavy chain variable region HCVR, variant 4; light chain variable region LCVR, variant 2
For B1, in the test with hCCR3, the MFI amounted to 40. The ADCC percentage was determined as 14% in the test with RA1 cells (0.0001 μg/mL); 36% in the test on RA1 cells (0.001 μg/mL); 50% in the test with RA1 cells (0.01 μg/mL); 51% in the test on RA1 cells (0.1 μg/mL); 55% in the test on RA1 cells (1 μg/mL).

B2: V62.1-R108H-m43-m38: matured anti-CXCR4 antibody; LCVR SEQ ID NO 14, HCVR SEQ ID NO 17 (antibody, V domains shown)
VH: EVQLLESGGGLVQPGGSLRLSCAASGFTFSSYAMSWVRQAPGKGLEWVSAISGSGGGSTRYADSVKGRFTISRDNSKNTLYLQMNSLRAEDTAVYYCARQGKTRVYGYHWHGYGSTHALDYWGQGTLVTVSS
VL: EIVLTQSPGTLSLSPGERATLSCRASQSVSSSYLAWYQQKPGQAPRLLIYGASSRATGIPDRFSGSGSGTDFTLTISRLEPEDFAVYYCQQWSSDSVTFGQGTKVEIKRT
modifications: heavy chain variable region HCVR, variant 3; light chain variable region LCVR, variant 2
As for B2, the ADCC percentage amounted to 8% in the test with RA1 cells (0.0001 μg/mL); 19% in the test on RA1 cells (0.001 μg/mL); 40% with RA1 cells (0.01 μg/mL); 42% in the test on RA1 cells (0.1 μg/mL); 54% in the test with RA1 cells (1 μg/mL).

B3: V62.1-R108H-m80: matured anti-CXCR4 antibody; LCVR SEQ ID NO 13, HCVR SEQ ID NO 19 (antibody, V domains shown)
VH: EVQLLESGGGLVQPGGSLRLSCAASGFTISPYSITWVRQAPGKGLEWVSQINSYNGKTYYADSVKGRFTISRDNSKNTLYLQMNSLRAEDTAVYYCARQGKTRVYGYHWHGYGSTHALDYWGQGTLVTVSS
VL: EIVLTQSPGTLSLSPGERATLSCRASQSVSSSYLAWYQQKPGQAPRLLIYGASSRATGIPDRFSGSGSGTDFTLTISRLEPEDFAVYYCQQSDYSYPFTFGQGTKVEIKRT
modifications: heavy chain variable region HCVR, variant 5; light chain variable region LCVR, variant 1
B3 came in with an MFI with hCCR7 of 25. The ADCC percentage amounted to 9% in the test with RA1 cells (0.0001 μg/mL); 16% in the test with RA1 cells (0.001 μg/mL); 45% with RA1 cells (0.01 μg/mL); 59% with RA1 cells (0.1 μg/mL); 55% in the test on RA1 cells (1 μg/mL).

These data come from patent publication US20190389958A1, “ANTI-CXCR4 ANTIBODIES” (MSM Protein Technologies, Inc., priority 2017, published 2019).
